One series deals with iPS cells (253G1 cells). Kind of series: iPS cell culture: evaluation of undifferentiated state (immunostaining). It counts as cell-based, human. The note with it: second passage, Day 6 (Culture day 20). How it is done:
The cells were cultured in the medium of each group for 3 to 5 weeks, and the following operations were performed on Days 4 to 7 of the passage. After washing the cells with D-PBS, 1 mL/well of 4% formaldehyde was added. After being left to stand for 30 minutes or longer, the solution was removed and washing was performed with D-PBS. 0.1% Triton X-100/D-PBS was added thereto and the mixture was left to stand at room temperature for 3 to 5 minutes. After washing with D-PBS, 1% of BSA/D-PBS was added thereto and the mixture was left to stand for 30 minutes.
An antibody for undifferentiation marker staining, such as OCT4 (Abcam, ab19857) or SSEA4 (Abcam, ab16287), was diluted in 1% BSA/D-PBS at an appropriate ratio, added to a well, which was left to stand for 30 to 60 minutes. After washing with D-PBS, secondary antibodies (a Goat anti-Rabbit IgG antibody (Abcam, ab 150115) and a Goat anti-Mouse IgG antibody (Abcam, ab150077)) were diluted in 1% BSA/D-PBS at an appropriate ratio and added to the wells, which were left to stand with light shielded with an aluminum foil for 30 to 60 minutes. DAPI (DOJINDO LABORATORIES, 340-07971) was diluted with 1% BSA/D-PBS to a concentration of 1 to 10 μg/mL, and added to each well, which was left to stand for 5 minutes. […] The image was acquired by observing the sample under a fluorescence microscope.

The subject of series [1] is mouse fibroblast cell line NIH/3T3. Kind of series: Solution preservation stability of bFGF and VHH homodimer, read out by fibroblast growth. It counts as cell-based. The note with it: 0.5 mg/mL in D-PBS, fibroblast growth on second day. How it is done: bFGF and the VHH homodimer (SEQ ID NO: 23, sequence name: #1-LA-#1, sometimes referred to as a single-domain antibody) was mixed with a D-PBS solution (Fujifilm Wako Pure Chemical Corporation) so that the concentration was 0.5 mg/mL, and incubation was performed at 37° C. for 1 week. Then, the growth promoting abilities for fibroblast growth of four test subjects, which are an incubated VHH homodimer, a pre-incubated bFGF, a VHH homodimer after thawing from freeze-preservation, and bFGF immediately after solutionizing with D-PBS from a freeze-dried product, were evaluated. As a negative control, culture without any of the bFGF and the VHH homodimer was also performed at the same time. The culture conditions were the same as those in Item 1 and Item 2 of the present Example, and the cell growth was evaluated by the number of cells on the second day after the start of culture.

Series [2] deals with phospho-p44/42 MAPK (Erk½). In words: Agonist activity by In Cell ELISA in NIH3T3 cells. Type of series: cell-based, mouse. Conditions: 30 minutes stimulation, final dilution ratio 100-fold, relative to no stimulus = 1. The text has this: In order to verify the agonist activity of the purified VHH (monomer), the expression level of phospho-p44/42 MAPK (Erk½) was […] by using an In Cell ELISA method. VHH (monomer) was allowed to act on the cells such that the final dilution ratio was 100-fold. In addition, as a positive control, FGF2 (fibroblast growth factor (basic) (FGF-basic/bFGF/FGF2), human, recombinant, animal-derived substance-free (154aa): product code 068-05384; manufactured by Fujifilm Wako Pure Chemical Corporation: final concentration: 100 ng/mL) was used. The experimental procedure was as described below.
A D-MEM (D6429, manufactured by Sigma-Aldrich Co., LLC) medium including a 10% fetal bovine serum (S0400, manufactured by BWT) and 1% Penicillin-Streptomycin Mixed Solution, 26253-84, manufactured by Nacalai Tesque, Inc.) was prepared, NIH3T3 (CRL1658, ATCC) was suspended therein, and the suspension was seeded on a 96-well plate for cell culture at 1× 10^4 cells/well and cultured overnight at 37° C. with light shielded in a 5% CO2 incubator. The medium in each well was removed and the inside of each well was washed with a serum-free medium. […]
Background: ELISA stands for enzyme-linked immunosorbent assay.

“FGF2: fibroblast growth factor (basic), human, recombinant (154aa), positive control; SEQ ID NO: 58 [reference compound]”: the “undifferentiation markers OCT4 and SSEA4” value with iPS cells (253G1 cells) is “positive”. Also, the “cell growth activity after incubation at 37° C. for 1 week” value in series [1] is listed as “the same as that in the case of no addition”.

B1: VHH Clone #2: alpaca-derived VHH single-domain antibody (monomer) binding FGFR1, amino acid sequence SEQ ID NO: 18 (protein)
VHH: QVQLVESGGGLVQAGGSLRLSCAVPGSIFRFNTMGWYRQPPGKQRELVAQMSRGGITKYGDSVKGRFTITRDNAKNTVHLQMNSLKPEDTAVYYCAGSYYSGSYYYPSPQGFSVWGQGTQVTVSP
modifications: VHH_Clone_#2
B1: the “agonist activity (expression level of phospho-p44/42 MAPK (Erk½))” value in series [2] is given as “none of the VHHs (monomers) have an agonist activity”.

B2: #1-L4-#1: dimer of VHH #1 with linker L4 (GSEGKSSGSGSESKST), SEQ ID NO: 23 (protein)
VHH: QLQLVESGGGSVQAGGSLRLSCAASRSLSRFNVWTWYRQAPVKQRELVASITKSGDTNYAESVKGRFIISRDDDKNTVYLQMNNLKSEDTGIYYCAGSYYSGSYLYPSPGGFSVWGQGTQVTVSSGSEGKSSGSGSESKSTQLQLVESGGGSVQAGGSLRLSCAASRSLSRFNVWTWYRQAPVKQRELVASITKSGDTNYAESVKGRFIISRDDDKNTVYLQMNNLKSEDTGIYYCAGSYYSGSYLYPSPGGFSVWGQGTQVTVSS
modifications: #1-L4-#1
For B2, the “undifferentiation markers OCT4 and SSEA4” value with iPS cells (253G1 cells) was “positive”. Further, the “cell growth activity after incubation at 37° C. for 1 week” value in series [1] is “exhibited the same cell growth activity as that of bFGF”.

B3: VHH Clone #1: alpaca-derived VHH single-domain antibody (monomer) binding FGFR1, amino acid sequence SEQ ID NO: 17 (protein)
VHH: QLQLVESGGGSVQAGGSLRLSCAASRSLSRFNVWTWYRQAPVKQRELVASITKSGDTNYAESVKGRFIISRDDDKNTVYLQMNNLKSEDTGIYYCAGSYYSGSYLYPSPGGFSVWGQGTQVTVSS
modifications: VHH_Clone_#1
In the case of B3, the “agonist activity (expression level of phospho-p44/42 MAPK (Erk½))” value in series [2] is “none of the VHHs (monomers) have an agonist activity”.

The values above are taken from patent US20240279618A1, “RECEPTOR TYROSINE KINASE AGONIST, COMPOSITION FOR CELL CULTURE MEDIUM, AND […] MAINTENANCE COMPOSITION” (SEKISUI CHEMICAL CO., LTD., priority 2021, published 2024).
